Legend:
[1] = system: Tobacco (Nicotiana tabacum L. cv Xanthi) callus; experiment: Fatty acid analysis (GC, GC-MS) of transgenic tobacco callus expressing the cDNA; format: cell-based; conditions: CaMV 35S promoter
Text: The cDNAs encoding fatty acid modifying enzymes associated with conjugated double bond synthesis in seeds of Impatiens balsamina and Momordica charantia were introduced into a plant expression vector designated pML63. Vector pML63 contains the uidA gene (which encodes the GUS enzyme) operably linked to the CaMV35S promoter and 3′ NOS sequence. pML63 is modified from pMH40 to produce a minimal 3′ NOS terminator fragment. pMH 40 is described in WO 98/16650 which was published on Apr. 23, 1998, the disclosure of which are hereby incorporated by reference. Using standard techniques familiar to those skilled in the art, the 770 base pair terminator sequence contained in pMH40 was replaced with a new 3′ NOS terminator sequence comprising nucleotides 1277 to 1556 of the sequence published by Depicker et al. (1982, J. Appl. Genet. 1:561–574). A chimeric gene was constructed comprising cDNAs encoding fatty acid modifying enzymes associated with conjugated double bond synthesis in seeds of Impatiens balsamina and Momordica charantia in sense orientation with respect to the cauliflower mosaic virus 35S promoter that is located 5′ to the cDNA fragment and termination sequences from the nopaline synthase (NOS) that are located 3′ to the cDNA fragment. The cDNAs for the Impatiens polypeptide was introduced in the NcoI and EcoRI sites of the vector pML63. The cDNA for the Momordica polypeptide was introduced into the NcoI and SmaI sites of the vector pML63. The NcoI and EcoRI sites flanking the Impatiens cDNA were generated by PCR amplification of the cDNAs using oligonucleotide primers that contained these restriction sites (SEQ ID NO:7 and SEQ ID NO:8, for the sense and antisense oligonucleotides, respectively). PCR amplification was conducted using the Pfu DNA polymerase. The NcoI site flanking the 5′ end of the Momordica cDNA was generated by PCR amplification in a similar manner (SEQ ID NO:9 and SEQ ID NO:10). The 3′ end of the PCR-generated Momordica cDNA was blunt-ended which allowed for cloning into the SmaI site of the vector pML63. The resulting fusions of the cauliflower mosaic virus 35S promoter with the cDNAs encoding fatty acid modifying enzymes associated with conjugated double bond synthesis in seeds of Impatiens balsamina or Momordica charantia and NOS termination sequences were released from the vector pML63 by digestion with XbaI. The resulting XbaI fragment was ligated into the corresponding site of the binary vector pZS199 The vector pZS199 contains the following elements: (1) the chimeric gene nopaline synthase/neomycin phosphotransferase as a selectable marker for transformed plant cells (Brevan et al. (1984) Nature 304:184–186), (2) the left and right borders of the T-DNA of the Ti plasmid (Brevan et al. (1984) Nucl. Acids Res. 12:8711–8720), (3) the E. coli lacZ-complementing segment (Vieria and Messing (1982) Gene 19:259–267) with unique restriction endonuclease sites for EcoRI, KpnI, BamHI, XbaI and SalI, (4) the bacterial replication origin from the Pseudomonas plasmid pVS1 (Itoh et al. (1984) Plasmid 11:206–220), and (5) the bacterial neomycin phosphotransferase gene from Tn5 (Berg et al. (1975) Proc. Natl. Acad. Sci. U.S.A. 72:3628–3632) as a selectable marker for transformed A. tumefaciens. The nopaline synthase promoter in the plant selectable marker was replaced by the 35S promoter (Odell et al. (1985) Nature, 313:810–813) by a standard restriction endonuclease digestion and ligation strategy.
Gene fusions of the Impatiens balsamina or Momordica charantia cDNAs with the cauliflower mosaic virus 35S promoter and the NOS termination sequences in vector pZS199 were introduced into Agrobacterium tumefaciens strain LBA4404. […]

soybean embryos = experiment: Fatty acid composition of transgenic soybean somatic embryos (GC, GC-MS); format: cell-based; conditions: for 16:0 / 18:0 / 18:1 / 18:2 / 18:3 / α-Parinaric / Eleostearic / Other: single soybean embryo; for 16:0 / 18:0 / 18:1 / 18:2 / 18:3 / α-Parinaric: % of total oil weight; for Eleostearic: includes cis-trans isomers of α-eleostearic acid (<1.0 wt %); for Other: primarily 20:0, 20:1, 22:0, and 22:1
Method: Gene fusions of the Impatiens balsamina or Momordica charantia cDNAs with the conglycinin promoter and phaseolin termination sequences in vector pKS67 were introduced into soybean embryos using the particle bombardment method of transformation. To induce somatic embryos, cotyledons, 3–5 mm in length dissected from surface sterilized, immature seeds of a soybean cultivar A2872 or JACK-910 were cultured in the light or dark at 26° C. on an appropriate agar medium for 6–10 weeks. Somatic embryos that produce secondary embryos were then excised and placed into a suitable liquid medium. After repeated selection for clusters of somatic embryos that multiplied as early, globular staged embryos, the suspensions were maintained as described below.
Soybean embryogenic suspension cultures were then transformed with the vector pKS67 containing the Impatiens or Momordica cDNA for fatty acid modifying enzymes associated with conjugated double synthesis by the method of particle gun bombardment (Klein et al. (1987) Nature (London) 327:70, U.S. Pat. No. 4,945,050). A DuPont Biolistic™ PDS1000/HE instrument (helium retrofit) was used for these transformations.
Five to seven days post bombardment, the liquid media was exchanged with fresh media, and eleven to twelve days post bombardment with fresh media containing […] hygromycin. This selective media was refreshed weekly. Seven to eight weeks post bombardment, green, transformed tissue was observed growing from untransformed, necrotic embryogenic clusters. Isolated green tissue was removed and inoculated into individual flasks to generate new, clonally propagated, transformed embryogenic suspension cultures. Each new line was treated as an independent transformation event. These suspensions were then subcultured and maintained as clusters of immature embryos.
Transgenic soybean embryos selected and maintained in this manner were analyzed for eleostearic acid and parinaric acid content using methods described in Example 4 (Table 1). Individual embryos expressing either the Impatiens or Momordica fatty acid modifying enzyme for conjugated double bond synthesis were homogenized in 1% (w/v) sodium methoxide in methanol. Fatty acid methyl esters resulting from this transesterification step were analyzed by both GC and GC-MS as described in Example 4. Methyl esters of eleostearic and parinaric acids were identified in transgenic soybean extracts by comparison of retention times and mass spectra with those of fatty acid methyl esters prepared from seeds of Impatiens balsamina and Momordica charantia. […] In soybean embryos expressing the Momordica enzyme, eleostearic acid was detected principally as α-eleostearic acid with lesser amounts of at least two other cis-trans isomers of eleostearic acid. […]

[2] = soybean embryos, β-conglycinin promoter, highest amount

Molecule	eleostearic acid accumulated, relative to total fatty acid [1] [%]	parinaric acid accumulated, relative to total fatty acid [1] [%]	16:0 (soybean embryos; independent transgenic line 1) [Weight %]	18:0 (soybean embryos; independent transgenic line 1) [Weight %]	18:1 (soybean embryos; independent transgenic line 1) [Weight %]	18:2 (soybean embryos; independent transgenic line 1) [Weight %]	18:3 (soybean embryos; independent transgenic line 1) [Weight %]	α-Parinaric (soybean embryos; independent transgenic line 1) [Weight %]	16:0 (soybean embryos; independent transgenic line 2) [Weight %]	18:0 (soybean embryos; independent transgenic line 2) [Weight %]	18:1 (soybean embryos; independent transgenic line 2) [Weight %]	18:2 (soybean embryos; independent transgenic line 2) [Weight %]	18:3 (soybean embryos; independent transgenic line 2) [Weight %]	α-Parinaric (soybean embryos; independent transgenic line 2) [Weight %]	16:0 (soybean embryos; independent transgenic line 3) [Weight %]	18:0 (soybean embryos; independent transgenic line 3) [Weight %]	18:1 (soybean embryos; independent transgenic line 3) [Weight %]	18:2 (soybean embryos; independent transgenic line 3) [Weight %]	18:3 (soybean embryos; independent transgenic line 3) [Weight %]	α-Parinaric (soybean embryos; independent transgenic line 3) [Weight %]	other results
ImpFad2: Impatiens balsamina fatty acid modifying enzyme associated with conjugated double bond formation, SEQ ID NO:2, cDNA SEQ ID NO:1 (protein, listed as Impatiens balsamina) MGEVGPTNRTKTKLDKQQESENRVPHEPPPFTLSDLKKAIPPHCFERSLVKSFYHVIHDIIILSFFYYVAANYIPMLPQNLRYVAWPIYWAIQGCVQLGILVLGHECGHHAFSDYQWVDDMVGFVLHSSQLIPYFSWKHSHRRHHSNTASIERDEVYPPAYKNDLPWFAKYLRNPVGRFLMIFGALLFGWPSYLLFNANGRLYDRFASHYDPQSPIFNNRERLQVIASDVGLVFAYFVLYKIALAKGFVWLICVYGVPYVILNGLIVLITFLQHTHPNLPRYDLSEWDWLRGALSTVDRDYGMLNKVFHNVTDTHLVHHLFTTMPHYRAKEATEVIKPILGDYYKFDDTPFLKALWKDMGKCIYVESDVPGKNKGVYWYNNDI	3.4	1.7	13.3	4.2	20.8	46.3	9.2	2.2	13.2	2.5	12.2	53.8	12.5	2.0	13.5	3.1	11.1	53.0	17.3	1.0	Eleostearic (soybean embryos; transgenic line 1): 3.0 Weight %; Other (soybean embryos; transgenic line 1): <1.0 Weight %; Eleostearic (soybean embryos; transgenic line 2): 2.8 Weight %; Other (soybean embryos; transgenic line 2): <1.0 Weight %; Eleostearic (soybean embryos; transgenic line 3): 0.6 Weight %; Other (soybean embryos; transgenic line 3): <1.0 Weight %; α-eleostearic acid of the total fatty acids (soybean embryos; [2]): ≤ 3%; α-parinaric acid of the total fatty acids (soybean embryos; [2]): ≤ 2%
MomFad2: Momordica charantia fatty acid modifying enzyme associated with conjugated double bond formation, SEQ ID NO:4, cDNA SEQ ID NO:3 (protein, listed as Momordica charantia) MGGRGAIGVLRNGGGPKKKMGPGQGLGPGERITHARPPFSISQIKKAIPPHCFQRSLRRSFSYLLSDIALVSAFYYVADTYFHRLPHPLLHYLAWPVYWFCQGAVLTGMWGIAHDCGHHAFSDYQLVDDVVGFLIHSLVFVPYFSFKISHRRHHSNTSSVDRDEVFVPKPKAKMPWYFKYLTNPPARVFIIFITLTLGWPMYLTFNISGRYYGRFTSHFDPNSPIFSPKERVLVHISNAGLVATGYLLYRIAMAKGVGWLIRLYGVPLIVLNACVVLITALQHTHPSFPYYDSTEWDWLRGNLVTVDRDYGPIMNRVFHHITDTHVVHHLFPSMPHYNGKEATVAAKRILGEYYQFDGTPIWKAAWREFRECVYVEPDEDDGATSGSSSKGVFWYHNKL	1.7	1.1	6.9	2.4	43.1	24.1	3.1	1.0	7.9	2.1	36.8	29.4	5.1	1.0	8.4	2.3	41.9	25.1	6.1	1.8	Eleostearic (soybean embryos; transgenic line 1): 17.4 Weight %; Other (soybean embryos; transgenic line 1): <2.0 Weight %; Eleostearic (soybean embryos; transgenic line 2): 15.9 Weight %; Other (soybean embryos; transgenic line 2): <2.0 Weight %; Eleostearic (soybean embryos; transgenic line 3): 12.4 Weight %; Other (soybean embryos; transgenic line 3): <2.0 Weight %; eleostearic acid of the total fatty acids (soybean embryos; [2]): ≤ 16.5%; α-parinaric acid of the total fatty acids (soybean embryos; [2]): ≤ 1.5%

Source: patent US7244563B2, “Genes for plant fatty acid modifying enzymes associated with conjugated double bond formation” (E. I. du Pont de Nemours and Company, priority 2002, dated 2007)
